Measurements from paper PMC2577339 (Nucleic Acids Research, 2008).

Target: the molecule itself
Assay: glycerol gradient sedimentation + SEC

B1: Topoisomerase IIα (enzyme)
chain: MEVSPLQPVNENMQVNKIKKNEDAKKRLSVERIYQKKTQLEHILLRPDTYIGSVELVTQQMWVYDEDVGINYREVTFVPGLYKIFDEILVNAADNKQRDPKMSCIRVTIDPENNLISIWNNGKGIPVVEHKVEKMYVPALIFGQLLTSSNYDDDEKKVTGGRNGYGAKLCNIFSTKFTVETASREYKKMFKQTWMDNMGRAGEMELKPFNGEDYTCITFQPDLSKFKMQSLDKDIVALMVRRAYDIAGSTKDVKVFLNGNKLPVKGFRSYVDMYLKDKLDETGNSLKVIHEQVNHRWEVCLTMSEKGFQQISFVNSIATSKGGRHVDYVADQIVTKLVDVVKKKNKGGVAVKAHQVKNHMWIFVNALIENPTFDSQTKENMTLQPKSFGSTCQLSEKFIKAAIGCGIVESILNWVKFKAQVQLNKKCSAVKHNRIKGIPKLDDANDAGGRNSTECTLILTEGDSAKTLAVSGLGVVGRDKYGVFPLRGKILNVREASHKQIMENAEINNIIKIVGLQYKKNYEDEDSLKTLRYGKIMIMTDQDQDGSHIKGLLINFIHHNWPSLLRHRFLEEFITPIVKVSKNKQEMAFYSLPEFEEWKSSTPNHKKWKVKYYKGLGTSTSKEAKEYFADMKRHRIQFKYSGPEDDAAISLAFSKKQIDDRKEWLTNFMEDRRQRKLLGLPEDYLYGQTTTYLTYNDFINKELILFSNSDNERSIPSMVDGLKPGQRKVLFTCFKRNDKREVKVAQLAGSVAEMSSYHHGEMSLMMTIINLAQNFVGSNNLNLLQPIGQFGTRLHGGKDSASPRYIFTMLSSLARLLFPPKDDHTLKFLYDDNQRVEPEWYIPIIPMVLINGAEGIGTGWSCKIPNFDVREIVNNIRRLMDGEEPLPMLPSYKNFKGTIEELAPNQYVISGEVAILNSTTIEISELPVRTWTQTYKEQVLEPMLNGTEKTPPLITDYREYHTDTTVKFVVKMTEEKLAEAERVGLHKVFKLQTSLTCNSMVLFDHVGCLKKYDTVLDILRDFFELRLKYYGLRKEWLLGMLGAESAKLNNQARFILEKIDGKIIIENKPKKELIKVLIQRGYDSDPVKAWKEAQQKVPDEEENEESDNEKETEKSDSVTDSGPTFNYLLDMPLWYLTKEKKDELCRLRNEKEQELDTLKRKSPSDLWKEDLATFIEELEAVEAKEKQDEQVGLPGKGGKAKGKKTQMAEVLPSPRGQRVIPRITIEMKAEAEKKNKKKIKNENTEGSPQEDGVELEGLKQRLEKKQKREPGTKTKKQTTLAFKPIKKGKKRNPWSDSESDRSSDESNFDVPPRETEPRRAATKTKFTMDLDSDEDFSDFDEKTDDEDFVPSDASPPKTKTSPKLSNKELKPQKSVVSDLEADDVKGSVPLSSSPPATHFPDETEITNPVPKKNVTVKKTAAKSQSSTSTTGAKKRAAPKGTKRDPALNSGVSQKPDPAKTKNRRKRKPSTSDDSDSNFEKIVSKAVTSKKSKGESDDFHMDFDSAVAPRAKSVRAKKPIKYLEESDEDDLF
- stoichiometry N: 2
